Assay [1] has as its target T1, human TL1A, soluble, CHO-expressed, residues 72-251 of SEQ ID NO:244 with N-terminal His6-tag (human, UniProt O95150 72-251).
T1 construct: also called hTL1A; hTL1A (CHO)
T1 sequence: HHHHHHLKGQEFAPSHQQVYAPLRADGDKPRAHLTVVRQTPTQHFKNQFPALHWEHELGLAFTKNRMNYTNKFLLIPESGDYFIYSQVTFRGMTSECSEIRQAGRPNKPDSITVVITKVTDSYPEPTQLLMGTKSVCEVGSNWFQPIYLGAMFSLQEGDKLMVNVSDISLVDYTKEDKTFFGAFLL
Description: ELISA, blocks hTL1A (150 pM) binding hDR3-Fc. As to the method: (§1) The ability of antibodies to block human TL1A binding to its cognate receptors, the DR3 and DcR3 receptors, was measured using a competition sandwich ELISA. In addition, blocking of a human TL1A variant FHM (human TL1A Q167R) and the cynomolgus monkey (Macaca fascicularis) TL1A (MfTL1A) protein binding to the human DR3 or DcR3 receptors was measured in the same manner. Constant amounts of biotinylated human TL1A or FHM (both expressed with a 6-His tag in CHO cells) or biotinylated MfTL1A (expressed in CHO cells) were separately titrated with varying amounts of antibodies. The antibody-protein complexes were incubated in solution (1 hr, 25° C.) and then transferred to microtiter plates coated with human DR3 (hDR3) or human DcR3 (hDcR3) expressed as human IgG1 Fc fusion proteins. After one hour at 25° C. the wells were washed, and bound human or monkey TL1A was detected with streptavidin conjugated with horseradish peroxidase (HRP). Wells were developed with a TMB solution to produce a colorimetric reaction and quenched with aqueous sulfuric acid before reading absorbance at 450 nm on a Perkin-Elmer Victor X5 plate reader. A sigmoidal dose-response curve was fit to the data using the Prism™ data analysis package. […] Both fully human anti-hTL1A mAbs and comparator antibodies, i.e., control mAb1 (an anti-hTL1A antibody with heavy and light chain variable domains having the amino acid sequences corresponding to SEQ ID NOS:21 and 27, respectively, of US 2009/0280116) and control mAb3 (an anti-hTL1A antibody with heavy and light chain variable domains having the amino acid sequences corresponding to SEQ ID NOS:57 and 48, respectively, of US 2009/0280116), were included in the study. NB: No binding under the conditions tested; NT: Not tested. Concentrations of biotinylated soluble ligands: (1) 150 pM; (2) 500 pM; (3) 10 pM; and (4) 50 pM.

The target in assay [2] is T1, human TL1A, soluble, CHO-expressed, …. Description: SPR 25C, mAb captured. A digest of the protocol: (§2)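 Biacore T100 SPR with captured mAb and soluble TL1A/Fhm analyte; ka and kd fitted to a 1:1 model assuming monomeric TL1A. KD = kd/ka; t1/2 (min) = ln2/(60·kd).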
In assay [3] the target is T2, cynomolgus monkey TL1A, soluble, CHO-expressed, residues 72-251 of SEQ ID NO:248 with N-terminal His6-tag (cynomolgus monkey (Macaca fascicularis), UniProt O95150 72-251 (human entry)).
T2 construct: also called MfTL1A; MfTL1A (CHO)
T2 chain: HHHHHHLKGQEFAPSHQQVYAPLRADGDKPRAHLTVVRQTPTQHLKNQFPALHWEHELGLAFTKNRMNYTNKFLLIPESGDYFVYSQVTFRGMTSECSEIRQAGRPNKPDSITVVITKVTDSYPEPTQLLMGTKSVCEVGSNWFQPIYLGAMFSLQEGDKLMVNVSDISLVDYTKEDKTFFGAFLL
Description: SPR 25C, mAb captured. An outline of the steps:
as §2

The target in assay [4] is T3, rat TL1A, soluble, CHO-expressed, residues 76-252 of SEQ ID NO:258 with N-terminal His6-tag (rat, UniProt Q8K3Y7 76-252).
T3 construct: also called rTL1A; rTL1A (CHO)
T3 sequence: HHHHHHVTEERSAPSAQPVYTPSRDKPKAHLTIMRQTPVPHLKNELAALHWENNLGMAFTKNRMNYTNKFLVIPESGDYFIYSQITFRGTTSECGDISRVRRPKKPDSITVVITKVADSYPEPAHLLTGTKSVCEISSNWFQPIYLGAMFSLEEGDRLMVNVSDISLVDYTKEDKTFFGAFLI
Description: SPR 25C, mAb captured. An outline of the steps: as §2

Assay [5] has as its target T2, cynomolgus monkey TL1A, soluble, …. Briefly: ELISA, blocks MfTL1A (50 pM) binding hDcR3-Fc. As to the method:
as §1

Assay [6] addresses T1, human TL1A, soluble, CHO-expressed, …. Description: cell-based or functional assay.
Assay [7] shares this target. Briefly: ELISA, blocks hTL1A (10 pM) binding hDcR3-Fc. As to the method: as §1
For orientation: In an ELISA, binding on a coated surface is turned into a signal by an enzyme label.

The target in assay [8] is T4, full-length Fhm, human TL1A(Q167R), expressed on HEK293 cells (human, UniProt O95150 1-251).
T4 sequence: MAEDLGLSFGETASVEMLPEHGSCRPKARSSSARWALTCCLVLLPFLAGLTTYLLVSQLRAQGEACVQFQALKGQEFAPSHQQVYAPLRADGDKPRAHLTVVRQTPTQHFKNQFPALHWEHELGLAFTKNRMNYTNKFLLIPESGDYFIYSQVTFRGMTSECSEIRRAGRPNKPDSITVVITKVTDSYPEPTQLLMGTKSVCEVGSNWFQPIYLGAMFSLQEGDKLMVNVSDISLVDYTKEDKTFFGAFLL
Briefly: cell-based or functional assay.

B1: H4H1681N (antibody, human IgG4 S228P, V domains shown)
VH: EVQLLESGGGLVQPGKSLRLSCAVSGFTFSTYGMNWVRQAPGKGLEWVSSISGTGRTTYHADSVQGRFTVSRDNSKNILYLQMNSLRADDTAVYFCTKERGDYYYGVFDYWGQGTLVTVSS
VL: DIQMTQSPSTLSASVGDRVTITCRASQTISSWLAWYQQTPEKAPKLLIYAASNLQSGVPSRFSGSGSGTEFTLTISSLQPDDFATYYCQQYHRSWTFGQGTKVEIT
Regarding B1, the results for the IC50 in assay [1], in assay [5] and in assay [7] were 0.06 nM, 0.093 nM and 0.017 nM, respectively. For the same molecule, the equilibrium dissociation constant (Kd) (in general, a measure of binding affinity in units of concentration) in assay [2] amounted to 0.263 nM; in assay [3], 0.404 nM. For the same molecule, the t1/2 in assay [2] was 0.6 h; in assay [3], 0.417 h. The binding result in assay [4] is “no binding (tested: up to 100 nM)”. Also, in assay [6], the “Average % Blocking IFN-g, 3 ug/ml mAb” value is 95%.

B2: H4H1704N (antibody, human IgG4 S228P, V domains shown)
VH: EVQLVESGGGLVQPGGSLRLSCAVSGFTFSSYWMSWVRQAPGKGLEWVANIKEDGSEKNYVDSVKGRFTLSSDNAKNSLYLQMNSLRAEDTAVYYCAREDYDSYYKYGMDVWGQGTAVIVSS
VL: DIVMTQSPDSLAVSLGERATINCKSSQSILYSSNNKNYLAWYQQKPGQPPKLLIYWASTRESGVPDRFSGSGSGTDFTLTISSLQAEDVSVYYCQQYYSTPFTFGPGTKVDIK
notes: human IgG4(S108P) form of H2M1704N
B2: the 50% inhibitory concentration (IC50) (in general, the concentration that gives 50% inhibition) is 0.03 nM in assay [1], 0.11 nM in assay [5] and 0.077 nM in assay [7]. The Kd came to 0.0392 nM in assay [2], 0.0599 nM in assay [3] and 0.404 nM in assay [4]. The figures for the t1/2 in assay [2], in assay [3] and in assay [4] were 7.55 h, 4.6 h and 0.417 h, respectively. In addition, in assay [6], the “Average % Blocking IFN-g, 3 ug/ml mAb” value is 98%. Moreover, in assay [8], the “IC50, reporter + 10,000 TL1A cells” value was 1.58 nM.

B3: H4H1750P (antibody, human IgG4 S228P, V domains shown)
VH: QVQLVESGGGVVQPGRSLRLSCVASGFTFSNYGMHWVRQAPGKGLEWVAVISYDGNNDLYSDSVKGRFTISRDNAKNALSLQMTSLRAEDTAVYYCARDSTMTPYYYHGIDVWGQGTTVTVSA
VL: DIQMTQSPSSLSASVGDRVTITCRASQDIRNDLGWYQQKPGKAPKRLIYAASSLQSGVPSRFSGSGSGTDFTLTISSLQPEDFATYYCLQHNSYPPTFGQGTKVEIK
With B3, the results for the half-maximal inhibitory concentration (IC50) in assay [1] and in assay [7] were 0.341 nM and 0.656 nM, respectively. Also, the binding result in assay [4] is “no binding (tested: up to 100 nM)”. Also, in assay [6], the “Average % Blocking IFN-g, 3 ug/ml mAb” value is 89%. Besides, in assay [8], the “IC50, reporter + 10,000 TL1A cells” value came out at 29.5 nM.

B4: H4H1805N (antibody, human IgG4 S228P, V domains shown)
VH: QVQLQQWGAGLLKPSETLSLTCAVYGGSFTGFYWSWIRQPPGKGLEWIGEINHRGNTNYNPSLKSRVTMSVDTSKNQFSLNMISVTAADTAMYFCASPFYDFWSGSDYWGQGTLVTVSS
VL: DIMLTQTPLTSPVTLGQPASISCKSSQSLVHSDGNTYLSWLQQRPGQPPRLLFYKISNRFSGVPDRFSGSGAGTDFTLKISRVEAEDVGVYYCMQATQFPLTFGGGTKVEIK
notes: human IgG4(S108P) form of H2M1805N
For B4, the IC50 in assay [1] came out at 0.014 nM; in assay [5], 0.313 nM; in assay [7] it was 0.033 nM. The Kd amounted to 0.365 nM in assay [2] and 0.342 nM in assay [3]. Also, the t1/2 in assay [2] stood at 1.22 h; in assay [3], 1.23 h. The binding result in assay [4] is listed as “no binding (tested: up to 100 nM)”. The “Average % Blocking IFN-g, 3 ug/ml mAb” value in assay [6] was 94%. The “IC50, reporter + 10,000 TL1A cells” value in assay [8] is 54.1 nM.

B5: H4H1752P (antibody, human IgG4 S228P, V domains shown)
VH: EVQLVESGGGLVQPGGSLRLSCSASGFTFSKYVMTWVRQAPGKGLEWVSAIGPTGRTTEYADSVQGRFTISRDNSMNTVFLHLNSLTAEDTAEYYCAKMFDWNYDVYFDSWGQGTLVTVSS
VL: DIQMTQSPSILSASVGDRVTITCRTSQSISNWLAWYQQKPGKAPNLLIYKASSLESGVPSRFSGSGSGTEFTLTISSLQPDDFATYYCQQYYRYWTFGQGTKVEIK
Take B5: the 50% inhibitory concentration (IC50) in assay [1] came out at 0.104 nM; in assay [5] it was 0.056 nM; in assay [7], 0.031 nM. Also, the Kd in assay [2] was determined as 0.156 nM; in assay [3], 0.213 nM. Moreover, the t1/2 in assay [2] was 3.28 h; in assay [3] it was 2.32 h. In assay [4], the binding result was “no binding (tested: up to 100 nM)”. Moreover, the “Average % Blocking IFN-g, 3 ug/ml mAb” value in assay [6] worked out at 71%. Further, the “IC50, reporter + 10,000 TL1A cells” value in assay [8] was 138 nM.

B6: H4H1817N (antibody, human IgG4 S228P, V domains shown)
VH: QVQLQQWGAGLLKPSETLSLTCAVSGGSFSDYFWTWIRQPPGKGLEWIGEISHSGRTNYNPSLKSRVTISVDTSMSQFSLKMTSVTAADSAVYYCARDYPNWVFDYWGQGTLVTVSS
VL: EIELTQSPGTLSLSPGEGATLSCRASQSVFNSYLAWYQQKPGQAPRLLIYGASRRATGIPDRFSGSGSGTDFTLTISRLEPGDFAVYFCQQYGNSPLTFGGGTKVEIK
notes: human IgG4(S108P) form of H2M1817N
For the molecule B6, the half-inhibitory concentration (IC50) in assay [1] is 0.114 nM; in assay [5], 0.322 nM; in assay [7], 0.27 nM. Further, the Kd in assay [2] came out at 0.321 nM; in assay [3], 0.356 nM; in assay [4], 2.5 nM. Besides, the t1/2 is 1.72 h in assay [2], 1.53 h in assay [3] and 0.417 h in assay [4]. Moreover, the “Average % Blocking IFN-g, 3 ug/ml mAb” value in assay [6] was found to be 98%. Further, the “IC50, reporter + 10,000 TL1A cells” value in assay [8] was determined as 0.62 nM.

B7: H4H1804N (antibody, human IgG4 S228P, V domains shown)
VH: QVQLHQWGAGLLKPSETLSLTCAVSGVSFSDYHWAWIRQSPGKGLEWIGDINHRGRTNYNPSLKSRVTISLDTSGNPFSLKLTSVTAADTAVYYCARDFPNWVFDSWGQGILVTVSS
VL: EIVLSQSPGTLSLSPGERATLSCRASQSVSSSFLAWYQQYPGQAPRLLIYGASRRATGIPDRFRGSGSGTDFTLTISRLEPEDFAVYYCQQYGSSPLTFGGGTKVENK
notes: human IgG4(S108P) form of H2M1804N
As to B7, the concentration for half-maximal inhibition (IC50) amounted to 0.04 nM in assay [1], 0.034 nM in assay [5] and 0.175 nM in assay [7]. Also, the Kd worked out at 0.291 nM in assay [2], 0.264 nM in assay [3] and 0.321 nM in assay [4]. Besides, the figures for the t1/2 in assay [2], in assay [3] and in assay [4] were 0.85 h, 0.817 h and 0.717 h, respectively. Moreover, in assay [6], the “Average % Blocking IFN-g, 3 ug/ml mAb” value worked out at 98%. Moreover, the “IC50, reporter + 10,000 TL1A cells” value in assay [8] was 1.23 nM.

Values taken from patent publication US20140120109A1 (Regeneron, published 2014).
